Source: the DeepSol protein solubility set

Assay: soluble on expression in E. coli; label from the status in PepcDB or PDB records

Soluble on expression in E. coli, soluble:
MPKRIVYNISSDFQLKSLLGEGAYGVVCSATHKPTGEIVAIKKIEPFDKPLFALRTLREIKILKHFKHENIITIFNIQRPDSFENFNEVYIIQELMQTDLHRVISTQMLSDDHIQYFIYQTLRAVKVLHGSNVIHRDLKPSNLLINSNCDLKVCDFGLARIIDESAADNSEPTGQQSGMVEFVATRWYRAPEVMLTSAKYSRAMDVWSCGCILAELFLRRPIFPGRDYRHQLLLIFGIIGTPHSDNDLRCIESPRAREYIKSLPMYPAAPLEKMFPRVNPKGIDLLQRMLVFDPAKRITAKEALEHPYLQTYHDPNDEPEGEPIPPSFFEFDHYKEALTTKDLKKLIWNEIFS
MSLKVLIIGGVAAGTKTAAKIKREMGDNCSVTILNKGDDISYAGCGLPYYVGKIIEDKSSLIVNTPESFSKLTGAEVRCGVEVTSIDRNAKQVTLKTLSTGEKENLSYDKLVIATGADPIKPPIPGIDLPGVFFMRTPNDAIKLRDSIENGIKRAVVIGGGFIGLEIAENLSAMGIRVSVVDMAEHVMPGFDTDFAEYVENHMADKGIMIFTGDQVVGIEGENKVEKLRTKNRAIKTDLVVMSVGIRPNTGFLKDTGLEFAPNNTIIADEYMLTNDKDIYVVGDCAFVKNSLTNKPTWSPMGSSANHEGRICAQNISGKSKTYNGVLGTTVVKLPELNAGKTGLSKEIAEKEGYNVCSVTIATDDKAHYYPGASNFIIRMVAEKNTRKLLGVQVMGPGAVDKIVDIAATAITLGADLYSLESMDLAYAPPFSTAIHPFVVAVNVLQNKLNGELDSVLLDEIEDFDSWTKLDVSKAPSIPSLRYIPVGEINGEIEGLAKDEKILLICAKGKNSYMAQNRLRRFGYTNTKVLEGGILFYPNLKVMEEGHHHHHH
MISILYDEIVSCSRCERLIEYRKNFKIPPRFKDWNYWNKPVPGFGDEKAKILIVGLAPALHGGNRTGRVFTGDESGKWVIKGLYALGLSNKEEGKTREDGLEVKEVYLTNTVKCAPPKNKPTREEISNCSRFLIEEIKSLRIKVILALGRIAFDTILSLYGIKSKFYHGVVIKLPDDKILIGSYHPSAQNTKTGRLKWEDWIKILKLAYEIANNPQY
MAHHHHHHMGFPAVPFVEDKNDAEILRDEADDEFASYFKEGRKPKILITTGEHPCFRTKLFVKEALWLFPNSIYRPRKKYNLKEITQFCINREFTDLIVVTDRLKEPYNLIISHLPEGPTAMFRVSNFMTHAQLKDPAPRTEHYPELIFKNFDTRLGRRINRLLECLFPATRDYEGRAVATFHNQRDYIFMRTHRYIFDSLDAVRIQEMGPRFTLRLLSLQSGTFDTQFGEYEWFRKKEHDDDKLEWYL
MAHHHHHHMECYDNTKQKDLQEEHDVVRNFRRYYFQEKEEMHIAAIKSISDVLKNSISETNFELFINMNEAKCKLNNFINNNQTQQDIISVPHSKRMTIYPIISSCDIYHHFVVKKYTHNENNFHVLKNVIENNADEFSASLQKSLETIGSSSNIMFLNKHTTILTHSNSDCVKSLIMDVVKNQNKQVSIYFTCTSQVNLNYEEKEKKFDENFLEELNKENINITKIDLTQVKDIINKIDFVLIGSEIVTDNGGIINKKGIKLISELCLLYKKPFYVTCQAYKFLKIDKNKCSKDFYTFCTQTVTNNFNNIYEFVSPDFITLFYTDIGIFPPSNISYELSKLYINDAFYF
MIVTKDYSKESRVNENSKYGTLISDWYLKGRLTSLESQFINALDILETYHYGEKEYKDAKDKLMTRILGEDQYLLERKKVQYEEYKKLYQKYKEENPTSKLKLKTFDQYTIEDLTMREYNELTESLKSAVKDFEKDVEKIENQHHDLKPFTDEMEEKATSRVDDLANKAYSVYFAFVRDTQHKTEALELKAKVDLVLGDEDKPHRISNERIEKEMIKDLESIIEDFFIETGLNKPGNITSYDSSKHHYKNHSEGFEALVKETREAVANADESWKTKTVKKYGESETKSPVVKEENKVEDPQSPKFDNQQEVKTTAGKAEETTQPVAQPL

Soluble on expression in E. coli, not soluble:
MGSDKIHHHHHHMNAALWISKTGLDAQTKDIAVISNNLANASTIGFKKSRAVFEDLLYQNINQPGGRTAQDTEAPSGLMLGAGTKVVATQKIHTQGDMITSDNALDLMIQGEGFFEIQMPDGSSAYSRNGQFTMDDEGNMVTPGAGYMIQPQVTIPEDALSIIVSQDGEVSVTLQGQPDPAVVGQINLINFVNPTGLQPIGQNLYTETAVSGAPQEGVPGLEGYGMLVQGALETSNVNTTEELVNLIESQRVYEMNSKVISAVDEMLSYINQQM
MMNNVKYLSFALILAFSACKSGSASSQEPSEKQDTVKIFNLPQIPVVLNTVEQRTDYMVKHYWDRFDFSDTTYINQAEVPEQAWVDYCDLLEHVPLPVAQTAMKETFNRAEKNRKMLHFFEELADKYLYDPNSPMRNEEFYIPVLEALIASPALDETAKIRPQARLELAQKNRLGTKALNFTYTLDSGVKGTLYQFPAEYTLLFINNPGCHACAEMIEGLKASPVINGFTAAKKLKVLSIYPDEELDEWKKHRNDFAKEWTNGYDKELVIKNKNLYDLRAIPTLYLLDKNKTVLLKDATLQKVEQYLAERG
MENNTILHNYQDWLEHHKMPAGKKKTLVAAIELFSQQGYNGTSTAQIAEKAGISQATIFKYFKTKSDLLSEIMQPMIPELKRDFFPKLQTYTKLEEVVHFIVQDRFQFLTQNADLIKILIQEALVNVKLRKTLLTNIQLTISKDFMAYWQTLKQINPQINPNLSGIEVIRTNVGLLFAYFTQRFILNIPTPSEQKDLLLIEKQILTLLILDTH
EKAVLIGEKEADITFVTWGSQKGPILDVIEDLKEEGISANLLYLKMFSPFPTEFVKNVLSSANLVIDVESNYTAQAAQMIKLYTGIDIKNKILKYNGRHMTEDEILKSAKEILNKESLMVVLEDGS
MDAVSPLDAYERAVQRGFQPDQAQLQAVQQLQACYLALTESRGQAQGVYLWGPVGRGKTWLMDRFFESLNVPARRQHFHHFMRWVHKRMFELMGTPQPLTVVAKELARDVRVMCFDELFVTDIGDAVILGGLLQVMFEQGVVLVCTSNQPPDQLYSHGHNRERFLPAVAAIQKYMKVVAVDGGEDHRLHPGQLHQRYWVAQAGQPSALQGIFEALSAGQPVHDSQVMLGYRSINVVEHSDTAVWCRYRDLCEQPLAAMDFIALCDRFSVILLSEVPVLGAVQREAKIARGTEDGVEQVTAGDRELPQLSPNDDGVRRFIALVDECYDRRIPLYVEAPVPMDQLYTQGYLSFAFRRTLSRLQEMQLERFTESLEHHHHHH
MGSDKIHHHHHHMSRLSTAPWGPVLKSVPTAAHWSLRPWCLSISLSANSEAMNKMQTEKLITPFAHALQHEHGVWGLIDQMKAVTHFLDEELERDRIRNLGIADASFLRKFGAKGTYAAQWLEAQGVVIPTRPNSWAQAADGSLALRLGNSEFLIEDVPGGTSCDRLAQACAGARGVYPVPHVEASFVISGHAVQALFSEVCSIDLTHASLGAQDVVMTQFAGVSVVLIRQDLKEEESLYRLWCDSSYGSYLWEVIAGIAHEHKGGPVGIGRYFASCP
MYYGALSIRAEAWLIVSPEVTKIMAKEQTDRTTLDLFAHERRPGRPKTNPLSRDEQLRINKRNQLKRDKVRGLKRVELKLNAEAVEALNELAESRNMSRSELIEEMLMQQLAALRSQGIV
MSVQSITESNQPPVICLMGPTASGKTALAMALKDALPCDIVSVDSALIYRDMDIGTAKPTKSELVQYPHRLIDLRDASESYSAADFCRDALVEIAEIRSNGRIPLLVGGTMMYFKSLIEGISPLPTANPEIRQAIEAEALSKGWQAMHDQLAEIDPVSAERIHPNDPQRITRALEVYRLTSNTLTQLTQIKGAKLAGDVLQLAITPRERSTLHERIALRYQQMIDLGFEQEVIKLKSRDDLHQDLPSIRCVGYRQMWQHLEGEFDHDEMIFRGVCATRQLAKRQLTWLRNWPDLHWLTTDDKTNLAQVLSLLEAKH
MASMAAELRPSDGGSSLHMLDSLLMMGLSSGGGVGGGGSSQSQILDSAGAAELAALLLPQHSNDPLHLMSTGDAALGLAGPMAAAEHHQHHPHHQHHSVPATAGFPSQTPPPPLFSNATAGAAPATRVRAAGSCGSGGVAGGTTSHSSEDGVFHSADPHHHHQQHLQQPQPQQQQQQQQQPQHQQQQQQQQQQQPQQPQFHHHQPQQHQAQQAVAATAPAAAADHLFLPPAAAGAAGQQQAGWGAATGAHLFHSDAPNRPNGPKTPTNRNGYAMKPPPPAAAAAVMSGHAMAASGVVAGRGGGGGGCDAEEDELTFAAAAAAEVSSDDEVMGGRGGAVMGRAAVGGFRTPAPAPASAGAAVNVAAAAPAAPAGTWVPKGKPAVEVSAWAPAPAAPVAAAAAAAVAVSPTVAAFAAAPVVEAVALVRSQQRQEQEHQLVQVAAAEQQDQQQAKRPVRSSRRRAQESQQAAAEAQQAAQQAAAAQQQQQHTGSGNIVGDKQGKPQGGLQQGRPVATQPSPPPPAVATAAAAAAATAPVATAPVATVATAATADTMPQRLTAVQQHEAYPAVVRGTLDVRKACLPRFPLVAREQAEAELQSVATAALQQAAAAPGASAAVTAAAAAAAAAATAAGEGKAGEGKAATARRGGRGAAEAEAAAALPAVGASGNPGLDEAMGAYVRVAALYGDEAAAAVAECESLMADFDNKLQLGNLATTFAAAASPTAAASGRARGGARSGGVGGGGTKRVASGANASGANSSGMSGGGGGDSAGAEAAAGDEMEWAPGATSVDTATGGADDEDGEEEEGQQPGGAAAAAAVAAAGGEASQLAASIAATYGSQLVQVAASLAQRPKVGKLPPAATQLLKGWWDDNFVWPYPSEEDKKQLGEAAALNNTQINNWFINQRKRHWHKHFPNRRPPSTREEAERLLRAAGAI
MSSRAVSLFSKCGSRISQTRGKAHFTFQPSTTLPAGLENLEKTKMNLMQSVNEAMRIAMETDDSAVLFGEDVAFGGVFRCSLDLQKKFGKDRVFNTPLCEQGIAGFGIGVAAAGATAIAEIQFGDYIFPAYDQLVNEAAKFRYRSGNQFDCGKLTVRTTWGAVGHGALYHSQSPEANFTHTPGLKLVVPRGPVQAKGLLLSCIRDPNPCIFFEPKILYRLASEDVPTGDYTIPLGQAETVRSGKDLTLVAWGTQVHVALEAAQLAKEKLNADVEVIDLQTIQPWDEDHVVESVQKTGRLIVTHEAPISSGFGAEIASTVQKRCFLNLESPIDRVAGFDTPFPHVHEPFYLPTVHRVFDAIKKSVNY
METSNFVKQLSSNNRKTRVNALEALKKYLTAKQFKENKQIEFNKLWKGLYYAMWFSDRPRPQQRLANELGELHGLYFDPKDNSTADELTTNDKAFIKFSRGFWKVMCFEWFNIDRYRLDKYLLLIRRVLFSQLKYLQSRNWDKKLVDEYIKKVLRWLPLSGSPKVYTGIPIHIVDILLDEWERLLKDGDEDDEDEENKEEEMRKIAESAKKTPLADVIAIFQDIVADYNNSKVLREKIKEDLFSDTRLVSWDILEGETQHNDSSNESEEEEEEEWKGF
MSLKLLAFDTSSTALSVAILEDDRLLADASLTIKKNHSISLMPTIDFLMKSVNLSPQDLDRIVVAEGPGSYTGLRVAVATAKTLAYTLTIDLVGVSSLAALALNSHHEGFIVPIMDARRNHVYVGFYENGRAAKADQYASLNAVLEQLKGRKQVTFVGEVTAFRQEINQTFPEAKVLEVLPSAFKIGQVGQKLTPVDVHAFVPKYLKKVEAEENWLKTHEDSGLSYVKRVEGHHHHHH
MGSSHHHHHHGGTGENLYFQGGSGLLMRSSSPAATVQATHQRVQSAQERHVRREYASDVNTPRALSVRSSRGGSFAFAPQVQEKYNTMNILVLGAPQVGKSLFINSYRAAITNTTRWPAAPVGISGFYGTTTVAPFPNHARQPTWLCIDTPGSLYTEKHAVLLEKLTEGMPWKTKLKGPNALTLRQIKDISPIAANKAHQCIIVVPATDLIEDDGLINTLLWRNRYRPAGGVADIIFYLKGLISSLRTLMDDASPFVVVTKMDKVGGARNSSACAALVSILGQCVPVNHVYFTAAVENRALLATGRTMVLESSTKQNLVRLHEDICLAVQWRNQVDAM
